From PMC11718230 (Nature Communications, 2025)

T1: ATTO647N-STX17 SNARE domain (residues 161-231, E198C) (UniProt P56962 161-231, E198C, ATTO647N maleimide conjugated (cysteine introduced by E198C))
T1 sequence (looked up): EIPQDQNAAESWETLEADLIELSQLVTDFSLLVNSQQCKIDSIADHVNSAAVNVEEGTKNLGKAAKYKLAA


Target: T1, ATTO647N-STX17 SNARE domain (residues …)
Test: FRET or BRET

binding result	Binder
binds	ATTO550-VAMP8 SNARE domain (10-74, E39C) (domain or fragment, UniProt Q9BV40 10-74, looked up) NDRVRNLQSEVEGVKNIMTQNVERILARGC(ATTO550 maleimide)NLEHLRNKTEDLEATSEHFKTTSQKVARKFWWKNV
binds	ATTO550-VAMP7 SNARE domain (residues 123-187, E152C) (domain or fragment, UniProt P51809 123-187, looked up) LDKVMETQAQVDELKGIMVRNIDLVAQRGC(ATTO550 maleimide)RLELLIDKTENLVDSSVTFKTTSRNLARAMCMKNL
